One molecule from patent US20120165211A1, “Human Antibodies Cross-Reacting With A Bacterial And A Self Antigen From Atherosclerotic Plaques” (priority 2007, published 2012) can be followed below.

Format in all cases: binding
Assay [1] has as its system antigen present in Klebsiella pneumoniae. As to the kind of experiment: Western blot assay on pathogen lysates. As to conditions: Fab 10 μg/ml; 8 μg total protein lysate per well. How it is done:
(§1) Bacterial cell lysates were carried out inoculating a colony or a scratch in 10 ml of SB and growing bacteria at 37° C. overnight. Cultures of Staphylococcus aureus, Proteus mirabilis, Klebsiella pneumoniae, Enterococcus cloacae, Streptococcus pyogenes, Neisseriae gonhorreae, Listeria monocytogenes were grown. Overnight cultures were harvested by centrifugation (4500 RPM for 10 min.) and then resuspended in 1 ml of RIPA buffer and protease inhibitor PMSF (1 mM final). After three cycles of freeze-and-thawing (37° C. and −80° C.) and one cycle of sonication (90 sec at max power) the lysate was cleared by centrifugation (15000 RPM at 4° C. for 20 min) Moreover one colony of Haemophilus influenzae was seeded on blood agar plates and then grown at 37° C. overnight. Haemophilus inluenzae colonies were collected and resuspended in 500 μl of RIPA/PMSF. All lysates were stored at −20° C. until usage.
(§2) Lysates from Listeria monocitogenes, Streptococcus pyogenes, Staphylococcus aureus, Enterococcus cloacae, Haemophilus influenzae, Proteus mirabilis, Escherichia coli, Klebsiella pneumoniae, were prepared as described in Example II. SDS-PAGE was performed according to standard techniques. Briefly, protein concentration of all lysates was determined by BCA kit (Pierce) according to manufacturer instruction. SDS-PAGE loading buffer was added to protein lysates before heating at 90° C. for 5 min. […]

The subject of assay [2] is antigen present in Proteus mirabilis. As to the kind of experiment: Western blot assay on pathogen lysates. As to conditions: Fab 10 μg/ml; 8 μg total protein lysate per well. How it is done: as §1, §2
Another assay has as its target T1, purified OmpK36 (Klebsiella pneumoniae, UniProt Q48473).
T1 construct: made in house; host or cells: E. coli BL21 (DE3), pET28b (BamHI/XhoI cloning)
Description: Western blot of purified OmpK36 with recombinant Fabs. The settings on record: 400 ng OmpK36His per lane; Fabs at 10 μg/L; blocking PBS/BSA10%. As to the method:
400 ng of purified OmpK36His was loaded on polyacrylamide gel (all lanes) and SDS-PAGE was performed. Proteins were blotted on PVDF membrane for 2 h at 350 mA. After blocking with PBS/BSA10% the membrane was cut to single lanes and each lane was incubated for 1 h with Fabs at 10 μg/L. After three washes membrane was incubated with anti-Human Light Chain K antibody (Sigma).

“Also recorded” adds a separate entry of the source.

B1: Fab7816: human recombinant Fab from coronary plaque library ID11LIB; heavy chain SEQ ID NO:2, light chain SEQ ID NO:4 (antibody, listed as Homo sapiens, V domains shown)
VH: LESGPGQVKPSQTLSLTCTVSGGSIGSGSYSWNWIRQPAGRGLEWIGRISDSGNTNFNPSLKSRVTMSVDTSKNQFALKLTSVTAADTATYFCARGRGILTGLFDYWGQGSLVSVSSASTKGPSVFPLAPSSKSTSGGTAALGCLVKD
VL: SPDSLAVSPGGRATIKCASSQSVLDNSNHKNSLAWYQQKPGLPPKLLIYWASTRYSGVPDRFSGSGSGTDFTLTINNLQAADVAVYFCQQYYSTPWTFGQGTKVE
For the molecule B1, the “binding in Western blot on Klebsiella pneumoniae lysate” value in assay [1] was “binds specifically; also recorded: recognizes with high specificity and affinity”. Further, in assay [2], the “binding in Western blot on Proteus mirabilis lysate” value was “binds specifically; also recorded: recognizes with high specificity and affinity”. Besides, the “reactivity with purified OmpK36 in western-blot” value with purified OmpK36 is reported as “react with purified OmpK36”.
